Data set [1] deals with the molecule itself. Briefly: SEC; analytical size exclusion chromatography, Yarra SEC-3000, 10 mM HEPES pH 7.2, 150 mM NaCl, 0.3 mM TCEP, 0.018% DDM, column at 20 °C; self-association in protein-detergent micelles. Background: In gel filtration, larger molecules generally elute earlier.
Data set [2] deals with the molecule itself. Briefly: SEC-MALS; isolated peak 1 (largest oligomer) of MBP-4A-S1R; Superdex S200, 150 mM NaCl, 5 mM HEPES pH 7.2, 0.018% DDM.
Data set [3] concerns the molecule itself. Briefly: SEC-MALS; isolated intermediate oligomer (peak *) of MBP-4A-S1R; Superdex S200, 150 mM NaCl, 5 mM HEPES pH 7.2, 0.018% DDM.
Data set [4] concerns the molecule itself. Briefly: cross-linking; DSS (150 or 250 μM) on 5 μM isolated peak 1 (oligomer) of MBP-4A-S1R, 2 h at room temperature, with or without 10 μM BD-1047; SDS-PAGE.

Changes are numbered by the printed parent chain. Names may count otherwise. Some results are limits rather than exact numbers.

As usually defined, the stoichiometry N is the number of molecules, sites or subunits per partner or assembly.

B1: G91I MBP-4A-S1R (receptor, guinea pig, UniProt Q60492 1-223, looked up)
chain: MQWAVGRRWLWVALFLAAVAVLTQIVWLWLGTQNFVFQREEIAQLARQYAGLDHELAFSKLIVELRRLHPVHVLPDEELQWVFVNAGGWMIAMCLLHASLSEYVLLFGTALGSPRHSGRYWAEISDTIISGTFHQWREGTTKSEVFYPGETVVHGPGEATAVEWGPNTWMVEYGRGVIPSTLGFALADTVFSTQDFLTLFYTLRVYARALQLELTTYLFGQDP
notes: sigma-1 receptor (S1R), guinea pig, 223 amino acids, as m1 with G91I; also called G91I mutation; not shown: MBP with 4-Ala linker, N-terminal, kept
As to B1, the “stoichiometry N” value in data set [1] is ~2.

B2: H97A MBP-4A-S1R (receptor, guinea pig, UniProt Q60492 1-223, looked up)
chain: B1 chain with I91G, H97A
notes: sigma-1 receptor (S1R), guinea pig, 223 amino acids, as m1 with H97A; also called mutation H97A; not shown: MBP with 4-Ala linker, N-terminal, kept
Consider B2, for which, in data set [1], the binding result is listed as “binds”.

B3: G91L MBP-4A-S1R (receptor, guinea pig, UniProt Q60492 1-223, looked up)
chain: B1 chain with I91L
notes: sigma-1 receptor (S1R), guinea pig, 223 amino acids, as m1 with G91L; also called G91L mutation; not shown: MBP with 4-Ala linker, N-terminal, kept
As to B3, the “stoichiometry N” value in data set [1] is ~4.

B4: G88I MBP-4A-S1R (receptor, guinea pig, UniProt Q60492 1-223, looked up)
chain: B1 chain with G88I, I91G
notes: sigma-1 receptor (S1R), guinea pig, 223 amino acids, as m1 with G88I; Named only as one of the substitutions of Ile or Leu at Gly-87, Gly-88 and Gly-91; also called substitution of Ile at Gly-88; not shown: MBP with 4-Ala linker, N-terminal, kept
Consider B4, for which the binding result in data set [1] was “binds”.

B5: G88L MBP-4A-S1R (receptor, guinea pig, UniProt Q60492 1-223, looked up)
chain: B1 chain with G88L, I91G
notes: sigma-1 receptor (S1R), guinea pig, 223 amino acids, as m1 with G88L; Named only as one of the substitutions of Ile or Leu at Gly-87, Gly-88 and Gly-91; also called substitution of Leu at Gly-88; not shown: MBP with 4-Ala linker, N-terminal, kept
Consider B5, for which the binding result in data set [1] is listed as “binds”.

B6: MBP-4A-S1R (guinea pig sigma-1 receptor fused to maltose-binding protein through a 4-Ala linker) (receptor, UniProt Q60492 1-223, looked up)
chain: B1 chain with I91G
notes: sigma-1 receptor (S1R), guinea pig, 223 amino acids; In detergent micelles (DDM); One preparation separates into a 6-8-mer, a tetramer and a monomer; also called nonmutated receptor; nonmutated fusion protein; source: preparative size exclusion chromatography; not shown: MBP with 4-Ala linker, N-terminal, kept
As to B6, the “stoichiometry N” value in data set [2] was 6 to 8; in data set [3] it was 4; in data set [4], > 4.

The values above are taken from publication PMC4106346, “The Oligomeric States of the Purified Sigma-1 Receptor Are Stabilized by Ligands*” (The Journal of Biological Chemistry, 2014).
